# Reference: article PMC2504287 (Nucleic Acids Research, 2008)
# T1: C.Esp1396I controller protein (UniProt Q8GGH0 1-79)
# T1 sequence: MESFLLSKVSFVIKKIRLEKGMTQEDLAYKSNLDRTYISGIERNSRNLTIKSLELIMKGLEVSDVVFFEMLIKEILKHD
# Assays:
# [1] = target: the molecule itself
# native gel or EMSA = target: the molecule itself; assay: native gel or EMSA
# [2] = target: T1, C.Esp1396I controller protein; assay: EMSA
binder,measurement,setting,value
C.Esp1396I controller protein (wild type) (natural protein) GSHMESFLLSKVSFVIKKIRLEKGMTQEDLAYKSNLDRTYISGIERNSRNLTIKSLELIMKGLEVSDVVFFEMLIKEILKHD,Kd,[1],~600 nM
C.Esp1396I E25A mutant (natural protein) GSHMESFLLSKVSFVIKKIRLEKGMTQADLAYKSNLDRTYISGIERNSRNLTIKSLELIMKGLEVSDVVFFEMLIKEILKHD,binding result,native gel or EMSA,binds
OL (OR mutated) (dsDNA) DNA 1: ATGTGACTTATAGTCCGTCTAGCCTAGCCTAGCCT DNA 2: AGGCTAGGCTAGGCTAGACGGACTATAAGTCACAT,binding result,[2],binds
